In US20140179896A1 (published 2014):
Positions count from the first letter of the chain named.

B1: E10 (designed binder)
chain: EVVAATPTSLLISWRHPHFPTRYYRITYGETGGNSPVQEFTVPLQPPTATISGLKPGVDYTITGYAVTEGRNGRELFIPISINYRT
notes: Del 1-8 10Fn3 clone; Flag tag not included
B2: E12 (designed binder)
chain: B1 chain with E69F, G70A, N72D, R74H, L76I, F77L, I78T
notes: Del 1-8 10Fn3 clone; Flag tag of the radioactive-assay form not included
B3: E13 (designed binder)
chain: B1 chain with E69L, G70E, R71Q, F77M, I78T
notes: as for B2
B4: E15 (designed binder)
chain: B1 chain with E69L, G70E, R71P, E75Y, F77M, I78V
notes: as for B2
B5: E21 (designed binder)
chain: B1 chain with E69W, R71Y, N72K, G73D, R74H, F77L
notes: as for B2
B6: E22 (designed binder)
chain: B1 chain with E69L, G73D, F77L, I78T
notes: as for B2
B7: K1 (designed binder)
chain: B1 chain with E69M, R71L, N72Y, R74H, F77L, I78T
notes: Del 1-8 10Fn3 clone; tag not included
B8: K2 (designed binder)
chain: B1 chain with E69D, R71E, R74Q, E75F, F77L, I78V
notes: Del 1-8 10Fn3 clone; Flag tag of the assay form not included
B9: K3 (designed binder)
chain: B1 chain with E69A, R71W, N72D, G73D, R74H
notes: as for B8
B10: K4 (designed binder)
chain: B1 chain with E69A, R71Y, G73D, R74Q, E75I, F77M, I78T
notes: as for B8
B11: K5 (designed binder)
chain: B1 chain with E69M, R71P, G73D, R74N, F77L, I78T
notes: as for B8
B12: E2 (designed binder)
chain: B1 chain with E69D, R71P, G73D, E75L, F77N
notes: as for B2
B13: 4A2 PR3 (designed binder)
chain: B1 chain with E69V, G70A, R71Q, G73A, R74H, F77M, I78T
notes: tag left out
B14: 4A3 PR3 (designed binder)
chain: B1 chain with E69V, G70A, R71Q, N72D, G73E, R74H, F77I, I78T
notes: tag left out
B15: 4B6 PR3 (designed binder)
chain: B1 chain with E69V, R71Q, G73D, R74H, I78T
notes: tag left out
B16: 4B7 PR3 (designed binder)
chain: B1 chain with E69V, G70T, R71Q, G73D, R74H, I78T
notes: tag left out
B17: 4C4 PR3 (designed binder)
chain: B1 chain with E69V, G70A, R71Q, N72D, G73D, R74H, I78T
notes: tag left out
B18: 4C11 PR3 (designed binder)
chain: B1 chain with E69M, G70A, R71Q, G73D, F77I, I78T
notes: tag left out
B19: 4D2 PR3 (designed binder)
chain: B1 chain with E69V, G70A, R71Q, G73N, R74H, F77I, I78T
notes: tag left out
B20: 4F12 PR3 (designed binder)
chain: B1 chain with E69V, G70T, R71Q, R74H, F77I, I78T
notes: tag left out
B21: 4G4 PR3 (designed binder)
chain: B1 chain with E69L, R71Q, G73D, R74H, F77L, I78T
notes: tag left out
B22: 4′B6 PR4 (designed binder)
chain: B1 chain with E69L, G70A, R71Q, G73D, R74H, F77I, I78T
notes: tag left out
B23: 4′G8 PR4 (designed binder)
chain: B1 chain with E69V, G70A, R71Q, R74H, F77L, I78T
notes: tag left out

Columns and labels:
[1] = target: T1, human vascular endothelial growth factor receptor-2 Fc chimera (KDR-Fc) (human, UniProt P35968 20-764); assay: binding to 1 nM KDR-Fc, % of input; radioactive equilibrium binding (assay not given)
T1 construct: range 1-764; also called human VEGFR-2; hKDR; not shown: human IgG1 Fc
Method: (§1) To prepare ³⁵S-labeled binding proteins for analysis, mRNA was prepared as described above for RNA-protein fusion production but the linker ligation step was omitted. The mRNA was expressed using rabbit reticulocyte lysate translation kit (Ambion) in the presence of ³⁵S-labeled Met at 30° C. for 1 hour. Expressed protein was purified on M2-agarose Flag beads (Sigma) as described above. This procedure produced the encoded protein without the nucleic acid tail. In a direct binding assay, VEGF-R2-Fc fusions in concentrations ranging from 0 to 200 nM were added to a constant concentration of the purified protein (0.2 or 0.5 nM) and incubated at 30° C. for 1 hour in buffer B. The receptor-binder complexes were captured using Protein A magnetic beads for another 10 minutes at room temperature using a Kingfisher™ The beads were washed with six reaction volumes of buffer B. The protein was eluted from the beads with 100 μL of 0.1 M KOH. […] of the reaction mixture and elution were dried onto a LumaPlate-96 (Packard) and the amount of ³⁵S on the plate was measured using a TopCount NXT instrument (Packard). The amount of fibronectin-based scaffold protein bound to the target was estimated as a percent of radioactivity eluted from Protein A magnetic beads compare to radioactivity in the reaction mixture. Nonspecific binding of fibronectin-based scaffold proteins to the beads was determined by measuring binding in the absence of KDR-Fc and represented less than 1-2% of the input. Specific binding was obtained through subtraction of nonspecific binding from total binding. Data was analyzed using the GraphPad Prizm software (GraphPad Software, Inc, San Diego, Calif.), fitted using a one site, non-linear binding equation.
T1 sequence (P35968 20-764 limits assumed, change not shown, form in doubt): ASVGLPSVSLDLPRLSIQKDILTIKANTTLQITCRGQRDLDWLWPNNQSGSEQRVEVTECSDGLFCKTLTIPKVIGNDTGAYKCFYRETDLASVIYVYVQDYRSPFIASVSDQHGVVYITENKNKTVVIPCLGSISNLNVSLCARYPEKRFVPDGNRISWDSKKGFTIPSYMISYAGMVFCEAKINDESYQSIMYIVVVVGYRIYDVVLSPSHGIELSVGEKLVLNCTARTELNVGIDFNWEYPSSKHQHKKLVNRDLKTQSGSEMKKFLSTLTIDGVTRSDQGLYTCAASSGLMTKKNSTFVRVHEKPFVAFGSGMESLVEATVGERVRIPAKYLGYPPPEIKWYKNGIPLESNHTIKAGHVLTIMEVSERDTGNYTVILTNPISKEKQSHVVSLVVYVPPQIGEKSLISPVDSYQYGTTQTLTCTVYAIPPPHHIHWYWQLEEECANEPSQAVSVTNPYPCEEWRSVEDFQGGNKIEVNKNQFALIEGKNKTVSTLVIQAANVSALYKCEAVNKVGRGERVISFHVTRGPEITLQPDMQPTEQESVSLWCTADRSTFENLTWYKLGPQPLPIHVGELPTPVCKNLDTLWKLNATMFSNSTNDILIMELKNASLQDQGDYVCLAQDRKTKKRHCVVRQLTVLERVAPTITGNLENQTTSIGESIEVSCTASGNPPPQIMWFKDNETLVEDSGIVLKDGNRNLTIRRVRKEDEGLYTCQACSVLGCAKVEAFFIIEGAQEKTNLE

[2] = target: T1, human vascular endothelial growth …; assay: radioactive equilibrium binding (assay not given)
Method: as §1

[3] = target: T2, human vascular endothelial growth factor receptor-2 Fc chimera (KDR-Fc) (human, UniProt P35968 20-764); assay: radioactive equilibrium binding, 1 nM KDR-Fc
T2 construct: range 1-764; purchased from R&D Systems; also called hKDR; human VEGF-R2-Fc; not shown: human IgG1 Fc
How it was run: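 ³⁵S-Met-labeled binder protein, made by reticulocyte-lysate translation and Flag-purified, held at 0.2 or 0.5 nM with receptor-Fc (0–200 nM) for 1 h at 30° C in buffer B. Complexes captured on Protein A beads, washed, KOH-eluted. Bound signal given as % of input radioactivity minus bead-only background; one-site fit.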
T2 sequence (P35968 20-764 limits assumed, change not shown, form in doubt): as above

Binder	Binding to 1 nM KDR, % [1]	Kd [2]	Binding to 1 nM KDR, % [3]
B1	53%	–	–
B2	36%	–	–
B3	38%	–	–
B4	52%	–	–
B5	47%	–	–
B6	45%	–	–
B7	48%	0.55 nM	–
B8	48%	1.19 nM	–
B9	45%	1.15 nM	–
B10	38%	1.95 nM	–
B11	47%	1.54 nM	–
B12	53%	–	–
B13	–	–	8%
B14	–	–	6%
B15	–	–	14%
B16	–	–	13%
B17	–	–	10%
B18	–	–	14%
B19	–	–	8%
B20	–	–	13%
B21	–	–	8%
B22	–	–	11%
B23	–	–	13%
